Results published in patent US20210070876A1 (LES LABORATOIRES SERVIER, published 2021).
Residue numbers refer to the chain shown, from its start. Names may count otherwise. Each block holds one binder with its values, some of them ahead of it.

Legend:
[1] = biological target: T1, His-tagged cynomolgus CD73 ECD (cynomolgus monkey (Macaca fascicularis)); assay: SPR, mAb captured, His-tagged CD73 ECD injected
T1 chain: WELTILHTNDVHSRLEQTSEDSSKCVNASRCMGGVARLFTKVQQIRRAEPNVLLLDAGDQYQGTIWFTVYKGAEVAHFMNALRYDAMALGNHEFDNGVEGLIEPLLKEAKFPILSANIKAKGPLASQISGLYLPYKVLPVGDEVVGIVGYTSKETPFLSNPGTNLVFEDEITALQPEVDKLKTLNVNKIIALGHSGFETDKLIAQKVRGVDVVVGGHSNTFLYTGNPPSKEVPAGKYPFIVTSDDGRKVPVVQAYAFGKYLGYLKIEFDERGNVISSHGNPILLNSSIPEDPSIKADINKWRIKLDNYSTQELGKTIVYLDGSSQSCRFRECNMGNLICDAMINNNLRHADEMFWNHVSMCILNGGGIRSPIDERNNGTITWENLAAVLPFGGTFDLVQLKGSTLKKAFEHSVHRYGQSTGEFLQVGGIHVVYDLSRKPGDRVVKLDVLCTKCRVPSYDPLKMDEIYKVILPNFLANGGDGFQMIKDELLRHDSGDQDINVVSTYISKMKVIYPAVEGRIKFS
Description: (§1) Kinetic binding analysis of anti-CD73 mAbs and Fab fragments was performed by Surface Plasmon Resonance (SPR), using a Continuous Flow Microspotter (CFM, Wasatch Microfluidics, Salt Lake City, US) combined with an IBIS MX96 SPR instrument (IBIS Technologies, The Netherlands). CD73 cDNAs coding for the extracellular domains of human and cynomolgus CD73 were synthesized and each cloned into a vector containing a CMV promoter and either a C-terminal 6× histidine sequence (SEQ ID NO: 45) for His-tagged CD73 ECD, or a human IgG1 Fc sequence (AA P101-K330), resulting in fusion of IgG1 Fc C-terminally to the cloned CD73 ECD. The His-tagged and Fc-fusion constructs were transiently expressed using an ExpiCHO™ expression system and purified either by standard Ni-NTA chromatography or standard MabSelect™ SuRe™ procedures, respectively. Anti-CD73 Fab fragments were generated by digesting full-length IgG1 antibodies with GingisKHAN enzyme, using a kit provided by Genovis (Sweden). Affinities of Fab fragments were measured by capturing Fc-tagged antigens on a G-a-hu-IgG Fc SensEye® for 15 minutes using the CFM. After spotting, the SensEye® was positioned in the IBIS MX96 biosensor and immobilized antigens were fixed by SensEye FixIt kit. Kinetic analysis was performed by injecting monomeric Fab fragments at increasing concentrations from 0.8 nM to 300 nM. After each cycle of Fab fragment injection, the surface was regenerated by 10 mM glycine pH 3, 10% glycerol. Fab association was performed for 15 minutes and antigen dissociation was performed for 15 minutes. Affinities of full-length monoclonal antibodies (mAbs) were measured by capturing mAbs on a G-a-hu-IgG Fc SensEye® (Ssens BV, The Netherlands) for 15 minutes using a Continuous Flow Microspotter (CFM, Wasatch Microfluidics, Salt Lake City, US). After spotting, the SensEye was docked in the IBIS MX96 and spotted mAbs were fixed by SensEye FixIt kit (Ssens BV, The Netherlands). Kinetic analysis was performed by applying a kinetic titration series injecting increasing concentrations of His-tagged antigens from 0.16 nM to 10 nM as 2-fold dilutions. The surface was regenerated before the next cycle of cynomolgus antigen injections by 100 mM H₃PO₄, pH 3. MAb association was performed for 15 minutes and antigen dissociation was performed for 45 minutes.

[2] = biological target: T2, His-tagged human CD73 ECD (human, UniProt P21589 27-549); assay: SPR, mAb captured, His-tagged CD73 ECD injected
T2 construct: runs as a homodimer of about 124-125 kDa in SEC-MALS; also called CD73-His; CD73-His ECD antigen
T2 sequence: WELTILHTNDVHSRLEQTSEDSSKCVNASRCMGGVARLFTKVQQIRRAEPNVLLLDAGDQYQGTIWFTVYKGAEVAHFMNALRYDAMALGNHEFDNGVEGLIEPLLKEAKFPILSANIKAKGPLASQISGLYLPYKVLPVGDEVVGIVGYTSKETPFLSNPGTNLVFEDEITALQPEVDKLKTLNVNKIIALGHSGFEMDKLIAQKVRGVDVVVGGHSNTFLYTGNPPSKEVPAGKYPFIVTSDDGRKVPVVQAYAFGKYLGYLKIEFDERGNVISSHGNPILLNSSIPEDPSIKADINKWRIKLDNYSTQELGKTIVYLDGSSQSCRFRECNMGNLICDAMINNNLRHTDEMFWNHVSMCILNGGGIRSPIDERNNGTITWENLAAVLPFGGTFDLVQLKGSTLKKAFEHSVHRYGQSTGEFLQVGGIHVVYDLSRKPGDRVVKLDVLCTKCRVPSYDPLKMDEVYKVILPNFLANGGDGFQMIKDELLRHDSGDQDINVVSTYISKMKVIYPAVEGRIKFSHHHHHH
Description: as §1

[3] = biological target: T2, His-tagged human CD73 ECD; assay: SEC-MALS, mAb:CD73 1:1
Description: (§2) Anti-CD73 antibodies and His-tagged CD73 were analyzed in different ratios as well as individually to analyze the size of complexes formed between CD73 homodimer and anti-CD73 antibodies. Samples were prepared by mixing […] of CD73-His with 900, 450, 90 or 0 μmol of antibody diluted into PBS, pH 7.4. Samples were incubated for 30 min at room temperature followed by separation using a UHPLC UltiMate 3000 (Thermo Scientific) and SEC X-Bridge column (Waters) at a flow rate of 1.2 mL/min. Sample running buffer was 0.01 M Citrate, 250 mM L-Arginine.HCl, pH 6.0. Following HPLC separation, all samples were analyzed using a MiniDAWN TREOS MALS detector (Wyatt) and Optilab T-rEX refractive index detector (Wyatt). Data plots were generated using Graph Pad Prism.

[4] = biological target: T2, His-tagged human CD73 ECD; assay: SEC-MALS, mAb:CD73 0.5:1
Description: as §2

[5] = biological target: T2, His-tagged human CD73 ECD; assay: SEC-MALS, mAb:CD73 0.1:1
Description: as §2

[6] = biological target: T3, cynomolgus CD73 ECD fused C-terminally to human IgG1 Fc (cynomolgus monkey (Macaca …, UniProt A0A2K5V5U7 27-549)); assay: SPR, Fc-tagged CD73 ECD captured, Fab injected
T3 construct: also called Cy CD73 ECD; Fc-tagged antigen; not shown: Human IgG1 Fc (printed as AA P101-K330) fused to the C-terminus of the ECD, and any linker
T3 sequence: T1 chain
Description: as §1

[7] = biological target: T4, human CD73 ECD fused C-terminally to human IgG1 Fc (human, UniProt P21589 27-549, limits assumed); assay: SPR, Fc-tagged CD73 ECD captured, Fab injected
T4 construct: Expressed in ExpiCHO; also called Hs CD73 ECD; Fc-tagged antigen
T4 sequence: T1 chain with T199M, A350T, I466V
Description: as §1

[8] = biological target: T5, human CD73 expressed on cells (human, UniProt P21589 27-549); assay: flow cytometry on CHO-S cells transiently expressing human CD73, AF647 anti-human IgG (H+L) secondary, GeoMean
T5 construct: also called 5'-NT; human CD73 on CHO-S cells
T5 sequence: T1 chain with T199M, A350T, I466V
Description: The anti-CD73 antibodies were incubated with the hamster CHO-S cell line transiently expressing human or cynomolgus CD73 for 30 minutes at 4° C. The cells were washed twice and subsequently incubated for an additional 20 minutes with AF647-conjugated secondary anti-human IgG (H+L) antibody. After the washing step, antibody binding was detected using the high-throughput flow cytometer iQue Screener PLUS (Sartorius) measuring the GeoMean of AF647 signal in each well. Every concentration was assayed in triplicate and a 12-point titration curve was generated for each antibody.

Kd [1]: 0.66 nM
koff [1]: 6.2e-05 s⁻¹
kon [1]: 100000 M⁻¹ s⁻¹
Kd [2]: 0.91 nM
koff [2]: 5.5e-05 s⁻¹
kon [2]: 65000 M⁻¹ s⁻¹
molecular mass of complex, Peak 2 (MW, kDa) [3]: 280 kDa
molecular mass of complex, Peak 2 (MW, kDa) [4]: 278 kDa
molecular mass of complex, Peak 2 (MW, kDa) [5]: 279 kDa
B1: antibody 21163 (antibody, human IgG1, kappa, L234A L235A, V domains shown)
VH: EVQLVESGGGLVQPGGSLRLSCAASGFSFSTYWMNWVRQAPGKGLEWVANIKQDGSEKYYVDSVKGRFTISRDNAKNSLYLQMNSLRAEDTAVYYCARDISSSWFYYYGMDVWGQGTTVTVSS
VL: DIQLTQSPSFLSASVGDRVTITCRASQGISSYLAWYQQKPGKAPKLLIYAASTLQSGVPSRFSGSGSGTEFTLTISSLQPEDFATYYCQQLNSYPPTFGGGTKVEIKR
notes: Fully human IgG1-LALA (L234A/L235A), kappa

Kd [1]: 0.05 nM
koff [1]: 1.1e-05 s⁻¹
kon [1]: 210000 M⁻¹ s⁻¹
Kd [2]: 0.04 nM
koff [2]: 8.3e-06 s⁻¹
kon [2]: 190000 M⁻¹ s⁻¹
molecular mass of complex, Peak 2 (MW, kDa) [3]: 382 kDa
molecular mass of complex, Peak 2 (MW, kDa) [4]: 199 kDa
molecular mass of complex, Peak 2 (MW, kDa) [5]: 969 kDa
B4: antibody 21046 (antibody, human IgG1, kappa, L234A L235A, V domains shown)
VH: EVQLVESGGGLVQPGRSLRLSCVASGFTFDDYAMHWVRQAPGKGLEWVSGISWNSGSIGYADSVKGRFTISRDNAKNSLYLQMNSLRAEDTAFYYCAQGGYAILTALEYWGQGTLVTVSS
VL: B1 VL with L4M, F10S, S31N, Y36F, L46S, T53S, R61K, E70D, L91Y, P96L
notes: as for B1

binding result [8]: binds
B5: antibody 21028 (antibody, human IgG1, kappa, L234A L235A, V domains shown)
VH: EVQLVESGGGLVQPGRSLRLSCAASGFSFDDYAMHWVRQAPGKGLEWVSGISWHSDNIGYADSVKGRFTISRDNAKNSLYLQMNSLRAEDTAFYYCAKDGPRYRGSYYYFDYWGQGTLVTVSS
VL: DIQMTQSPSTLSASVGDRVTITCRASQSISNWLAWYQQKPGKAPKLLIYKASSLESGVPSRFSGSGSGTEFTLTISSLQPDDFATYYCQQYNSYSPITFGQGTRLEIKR
notes: Fully human IgG1-LALA (L234A/L235A), kappa; germline-corrected (Symplex-corrected) variable domains

More lines, now with the values behind:

B2: 21163 Fab fragment (Fab, V domains shown, not shown: small tags and cut ends)
VH: B1 VH
VL: B1 VL
notes: Made by digesting the full-length IgG1 with GingisKHAN enzyme (Genovis)
Kd [6]: 77.6 nM
koff [6]: 0.016 s⁻¹
kon [6]: 200000 M⁻¹ s⁻¹
Kd [7]: 78.3 nM
koff [7]: 0.015 s⁻¹
kon [7]: 200000 M⁻¹ s⁻¹

B3: 21046 Fab fragment (Fab, V domains shown, not shown: small tags and cut ends)
VH: B4 VH
VL: B1 VL with L4M, F10S, S31N, Y36F, L46S, T53S, R61K, E70D, L91Y, P96L
notes: as for B2
Kd [6]: 0.8 nM
koff [6]: 0.00052 s⁻¹
kon [6]: 620000 M⁻¹ s⁻¹
Kd [7]: 0.8 nM
koff [7]: 0.0005 s⁻¹
kon [7]: 610000 M⁻¹ s⁻¹

B6: 21127 Fab fragment (Fab, V domains shown, not shown: small tags and cut ends)
VH: EVQLVESGGGLVQPGRSLRLSCAASGFTFDDFAMHWVRQAPGKGLEWVSGISWNSGNIGYADSVKGRFTISRDNAKNSLYLQMNSLRAEDTALYYCAKDKSGSPYYYYGMDVWGQGTMVTVSS
VL: DIQMTQSPSSVSASVGDRVTITCRATQGISRRLAWYQQKPGKAPKLLIYAASSLQSGVPSRFSGSGSGTDFTLTISSLQPEDFATYYCQQANSFPLTFGGGTKVEIKR
notes: as for B2
Kd [6]: 55.3 nM
Kd [7]: 54.6 nM
